This note sets out measurements from a protein production outcome set (Wang et al. 2014).

The data set can be described thus: label from the status in PepcDB records.

Take “MARFALVLHAHLPYVRAHGMWPFGEETLYEAMAETYLPLIRVLERLRAEGVEAPFTLGITPILAEQLADARIKEGFWAYAKDRLERAQGDYQRYRGTALEASARHQVAFWELTLDHFQRLSGDLVAAFRKAEEGGQVELITSNATHGYSPLLGYDEALWAQIKTGVSTYRRHFAKDPTGFWLPEMAYRPKGPWKPPVEGPPEGVRPGVDELLMRAGIRYTFVDAHLVQGGEPLSPYGEAALGPVESQEATYHVHELESGLRVLARNPETTLQVWSADYGYPGEGLYREFHRKDPLSGLHHWRVTHRKADLAEKAPYDPEAAFAKTEEHARHFVGLLERLAGRHPEGVILSPYDAELFGHWWYEGVAWLEAVLRLLAQNPKVRPVTAREAVQGPAVRTALPEGSWGRGGDHRVWLNEKTLDYWEKVYRAEGAMREAARRGVLPEGVLRQAMRELLLLEASDWPFLMETGQAEAYARERYEEHARAFFHLLKGASPEELRALEERDNPFPEADPRLYLFREA”: the protein production entry is listed as “not failed”. With “MARFRDELLLASLIALAALILLRGLGNDSLGFPDADRILMDSVFLRDLLVDLPLADPIGYTKDYFVQYPALSIGYRPPFFPFVAALLQLLVGPEMWATRLALFGFVLVGVASSYFWIRRHYGPWPAWGATALWLTTPYLAQWGWYTMAELTVLSMALLAANLFDKYLAEGKPALLYWSVLAVALAAWTKQTALFLLPWFAAMALAEGRFLAILRRREAWIAAFGLGVLLAPLVAMTLMLGDLNLEQSVGGTNRWTLANWTVRLKTILHHLTPPLLALSVVGAIWAGLKRDRHGLPFALLIVVVYGVFSYISGKNDRYPIFWVPAFALFAVLPFHFLSQRLPAKATVPALALGVGVLAAYQGSLAFTKTPSYATGYKEAAAYVLDSSETPIVFVDAYNNGYFTYFMRALDQGRSMVVLRGDKLLSSSAINMATKVEVHAEGRQEIEEIFRSLGVSLIVVEERNYTGLDVHDELRRFLKTDSFELVQAIPIHSNRTVSVLADFPPLGGQDLLVYRYKDAKTLTSGVVSLRLPVVGQTLSVDMETMMERRRAHP” the entry was “failed”; with “MARGEGEFYLAGRRLTGFLSAMTYAATTYSSFMIVGLVGLAYFTGIGSLVFELAYLVATVILLSLFSRRVWRMSRERGWVSPGEMLADLLGSPWVALTASLVFLVSLVPYASAQLKGIAETIVAIAGYSPGDNTAYMVAVGVALLILLAWSLLAGVRGVVLTDAFQGLWMLTAGSLLFLWLASRVFSKSGASEVLSAMESAGLFDMWSATLLIGFVTPWVFFAVTNPQVVQRLYMPKDEESLRRMILYFFLFGLYYTVLVVAIGFLARAGVELGILSIEPQGRDQVTPQLLSLAHPLLAALVFTSIVAASVSTADSIILALASSASRDIGLLVLRLDEKGRLRLGYAAAALFTVLMAVFAATRIGYIVQLSVLSSVMLLGLAPVTIAAWVGLRVHPALAVASIATGPVLVAANVLYSLAVGGEVSLSPAKQVLGVPISVWVLAISLALTAAGIALVRGRR”, “failed”.

For “MARGIWGVDSAQVVTDQLFQCVRTELGYPKFWGRYLSEVPNVSEGLTRDEIVRIRNYGVKVLPIYNAFREAVGYANGQVAARNAVFHARRLGIPKNKLLFANIEDFFAVDAAWIAAWVETLYPTGYRPGLYADPTKGDFAAAYCEAVSRNNQVAVQAVIWSAAPRPGTTKEQKAPRYQPAAPPCSANVWVWQYGRDAEVCPVDTNLADRRLLDFLY”, the protein production entry is “not failed”. With “MARHLITSALPYINGIKHLGNMVGSMLPADVYSRYLRQRGHDVLYICATDEHGTPAELAAKERGLPVDEFCAQAHDAQKAVYDGFELAFDYFGRSSSEQNREITQHFARRLNENGFIEERAIRQVYSPADGRFLPDRYVEGTCPHCGYDKARGDQCENCTRVLDPTDLINPRSAISGSTDLEVRETKHLFLLQSKLQHEVEEWVARHEEEWPQLASSIARKWLNEGLHDRAITRDLDWGVPVPADTWPELAAEGKVFYVWFDAPIEYIGATKEWSDLDPENRDWKSWWYDADSGENPVRYTEFMAKDNVPFHTVMFPATELGVREPWKKVDYVKAFNWLTYYGGKFSTSQKRGVFTDHALEILPADYWRYFLIANAPESDDSSFTWEHFTATVNKDLADTLGNFVNRVLSFSKKRFGEEVPAGAPAGESETKLGEEIAALLAEYESHMETLQFRKAAAALRALWSAGNSYLEEKAPWLEIKTNPEGAALTLRTAMNLIHLYSVVSEPFIPASSKAMRSAFALSEDTATWVTQDEAKSLDSVPAGTPFTVPPVLFAKITDEDLESYKERFGGAPE” the entry was “failed”.

For the sequence “MARIKLDFPDTAFTFETRLPVRITDINGANHLGNDALISMLSEARAQFLVEHGIEEAGHDGVGIIVTDLATMYQGESFYPDMLRFEVGLMDFNKYGGDFVFRVTKADSGQPVALAKYGFVFFNYQSREVTPMPESFRARFA”, the protein production result was “failed”. Consider “MARKKITLVGAGNIGGTLAHLALIKQLGDVVLFDIAQGMPNGKALDLLQTCPIEGVDFKVRGTNDYKDLENSDVVIVTAGVPRKPGMSRDDLLGINIKVMQTVGEGIKHNCPNAFVICITNPLDIMVNMLQKFSGVPDNKIVGMAGVLDSARFRTFLADELNVSVQQVQAYVMGGHGDTMVPLTKMSNVAGVSLEQLVKEGKLKQERLDAIVSRTRSGGGEIVALLKTGSAYYAPAAAGIQMAESFLKDKKMILPCAAKVKAGMYGLDEDLFVGVPTEISANGVRPIEVEISDKEREQLQVSINAIKDLNKAAAEILAK”, for which the protein production entry is given as “not failed”. Under “MARKNQKAPWEPEEEIIWVSKSEMKRDMEELQKLGEELVGLKPAVLEKFPLSEDLREAIADAQRFKNEARRRQLQRIGKLMRYEDPEPIQAALDKVRNKHSQATAALHKLEMLRDRVVEEGDKAIDDVMELYPEADRQRLRQLARQAAKEKKAGKPAKSYREIFQILKALNEEE” stands “not failed”. Under “MARKTAQSKRGVFNMDRLTSMAVFVKAVDLGSFAAAAEALGLSGPMVGKHVRSLEDRLGVQLINRTTRRQSLTEFGYVYYERCRVVLAEAQAADALASDQLSEPRGKLRVTMPVHFGRHCVTPVLLELARKYPALELDLSFNDRIIDLAEDGFDLSIRTGVLEDRAGLIARRVARQPMIVCASPSYLESHGCPEAPEDLAQHAAVVYRRSGPVSPWLFPRPGQSSSEVTPLHRFRLDDLDAIADAAARGLGLAWLPYWLVRGRIEAGTLVRLLPEQPPFLYDCHAVWLQTPHLPLKVRVAVDALAAQLPSFMT” stands “failed”.

“MARLHPIYSGQSDRPAILFVHGLDGHWLETWRHDACSKDDCWPHWVGEETGCDIWSLEYDAALSGWLDQAMPLPDQGSQVMDLLASAPALKGKPLVFVTHSLGGILVKTALVYGAEEDRRFQHIVDHVLGVVFIATPHSGAQLATLARVIKYLLRINPPVGNLEHHDPHLRTLNRRYQTLVKERGIEGYVYAEKRGVKIGPRGFGGWLRRIEPTVMVVDPGSTDPSLPEIQPISLAEDHISICKPPDRQQQIHLSLCHVLKEKIIPLAGDRGMGTTGVGLKLLESGTAQENPAAHMPPGRLVGPDDNRLSPREGKVYGRKTQENDVLAFLKGSEPVKVVGGVAGVGKTEVCKAALKTWLHTSPRPVAYYVRVPDRARSADLVLQVGKAVGIENCESLAQLLGVIPVGLYYLDNLESVADDQEGRNALRDLAQKPGVRILASSRTRLDTIFGAPIEIKCLSAPDALALFRDLWPPTQTLPKDDELQAFVIGKLGGHALSLVLVARLGMCLSFDALRRRWDEEGAALACDGVEDDTRTSNLTFNLRLTAEVLAPTPGALSVWVLMALFEEGIPEAVLEEVERRGQWPTLARHRLAVHHLISKRGDRWFLPPPVARYARYAAVTEQDGFCWRKSRQPILDLFLVFAEKASSFDSSPETLKAKKWILEFFNTISIVIECELESNVQNKFWLNRMSYFLRDIYQQRIAVSPALLRKLADAGIQPANTLRSLGDLASRLGQVDKARSLYEKALGLSQQEQSGLGQANALKALGDLASRLGQVDKARSLYETALGLFQQEQHGLGQANTLHGLGDLASQLGQVDKARSLYEKALGLFQQEPNGLGQANTLKSLGALEYRLGQVDKARSLYEKAVDLYRIEQEPLGLAYSLTNLALCFEVLKNLSKRNQVLKAAFVASRDANNEIVQIYLKEAIPEMPGADVLYDSWLKGQSR”: the protein production result is recorded as “failed”. In the case of “MARLNVNPTRMELSRLKKQLTTATRGHKLLKDKQDELMRRFIALVKENNELRIQVEQEVTDALSNFVLANATLNEAFIEELVAIPAEKVELEIIEQNILSVPVPKMIFDYDESVQEAPLDYGYVNSNSELDQAFAKISSILPKLLALANVEKTCQLLSKEIEKTRRRVNALEYMTIPQLEETIYYIQMKLEENERGEITRLIKIKSMNKENLEHHHHHH”, the protein production entry was “failed”. Under “MARMGGKKHLKALVAPKFWPILRKEYKWAVKPSPGPHPIERCFPLLIIVRDILGYAKTAREARKLISEGHFKVDGRVRKNYKYPVGLMDVIEIVDTGETYRVIPVPVKVLGLIEIDKEEAKYKLSRIENKTTVKGGHIQLNLHDGRNVLIKVSDPKNPVEDIYKTLGTLQISIPEQQILNYIPLDEGTLVIISGGRNVGRVGKVVSIHKGIRRHRSIVTIEDKHGNKFQTSLTYVFPIGKEEPLIKLPEGAW” stands “failed”; under “MARNSDNDMCKEERKRESFFKVLQRVDISSENMRALPYDFVRSFSNNELSRKMKIKARWGSSWEVEICKNPRFYFMEKSGWEKFVSDNALGASEFLTFTHKGNMRFTVNIFMQDGKEMLQPPQSMSFMASSRPPKREQGIPSLATTIAAESNGGGNYKRKLNFEKKKAEESHNSKRTDKVFSVQRESAGASSSSVAEFSMFIKKSYLIYMWFPKSVQSIHMPKQRTIFKIHHPNMKKSWNVVYVVSGTKSSFSAGWKGLAQEYPLAVGDTCKFSFIKQHELILFVSKP”, “failed”; under “MARPLVPSSQKALLLELKGLQEEPVEGFRVTLVDEGDLYNWEVAIFGPPNTYYEGGYFKARLKFPIDYPYSPPAFRFLTKMWHPNIYETGDVCISILHPPVDDPQSGELPSERWNPTQNVRTILLSVISLLNEPNTFSPANVDASVMYRKWKESKGKDREYTDIIRKQVLGTKVDAERDGVKVPTTLAEYCVKTKAPAPDEGSDLFYDDYYEDGEVEEADSCFGDEEDDSGTEES”, “failed”. In the case of “MARPQPCGPPHARCGSPSLPERPLQVKVVGLFSCPNFQIAKSAAENLKNNHPSKFEDPILVPLQEFAWHQYLQEKKRELKNETWEYSSSVISFVNGQFLGDALDLQKWAHEVWDIVDIKPSALYDALTEDFSAKFLRDTKHDFVFLDICIDSSPIGRLIFELYCDVCPKTCKNFQVLCTGKAGFSQRGIRLHYKNSIFHRIVQNGWIQGGDIVYGKGDNGESIYGPTFEDENFSVPHNKRGVLGMANKGRHSNGSQFYITLQATPYLDRKFVAFGQLIEGTEVLKQLELVPTQNERPIHMCRITDSGDPYA”, the protein production result is on record as “failed”. With “MARPRDRQKLDAVKVVETLDNLHARVSERFPASGLAMVCARLADTGRQTAARARRIGRPYLLLRALVVLIIVGGVALEFALAWRLDWSAALRAREGFDLAQGLEAAINLALLSGAAAWFLSSLERRWKQQRVQVALHELRSFCHVIDMHQLTKDPSVILGPRTRHSPPREMSNFQLSRYLDYCAEMLALTAKLAALYAGETDDPVIIAAVNDIETLASDLGRKIWQKIMILGQLNEAAAAQA” the entry was “failed”. Under “MARSQQFPSSTAVSVSPPAASSIAKPPQPVLDGLWAFAPNRDTLGGTAYFLKLPQGNWLIDAPAWHGETQAFVEEQGGLQGVFLTHRGAFGKAIAIQQHFDCDLVVQEQEAYLLPGANVTTFEQEQAIAPALTAIWTCGHSPGSACLYWEGHGGVLFTGRHLLPTRAGGVAPLRTAKTFHWPRQIRNTQMLCDRFSSETLAWICPGASSGFLRGRKAIASAYMQLQQLDWSALSEAQPLL” stands “failed”; under “MARSRVAGSKEAGPKVAGSRSRAAGQGRVGARLADGLRAYRMIAGMWIRSTMAYRASFVMTTFGNFGATALDFVAILLMFSQVDALGGYTLPEIAFLYGVAGIAFGLADLAIGSMDRLGRRVRDGTLDTLLVRPAPVLAQVAADRFALRRLGRITQGLLVFGYAVAALDIAWTPLKVLMVPFMMLSGGAIFAAVFVAGGAFQFVAQDASEVQNSFTYGGQTLLQYPPTVFAADLVRGVTFVVPIAFVNWLPALYVLGRPYPLDLPTWVAFTPPLVAAACCALAGLAWRAGLRSYRSTGS”, “failed”.
